3 molecules from patent US20190015483A1 (CSL BEHRING RECOMBINANT FACILITY, published 2019) can be followed below.

Several values for one entry are separate records, joined by “and”; a condition that tells them apart may be missing. Equal entries are not always repeated.

For assay [1], the target named is recombinant Factor VIII (CSL627, rVIII-SingleChain) (Homo sapiens (Human)) (UniProt P00451). Put plainly: SPR, anti-His capture, FVIII injected, 37 C.
Assay [2] addresses T1, recombinant Factor VIII (CSL627, rVIII-SingleChain) (Homo sapiens (Human), UniProt P00451 20-2351).
T1 construct: also called FVIII
T1 sequence: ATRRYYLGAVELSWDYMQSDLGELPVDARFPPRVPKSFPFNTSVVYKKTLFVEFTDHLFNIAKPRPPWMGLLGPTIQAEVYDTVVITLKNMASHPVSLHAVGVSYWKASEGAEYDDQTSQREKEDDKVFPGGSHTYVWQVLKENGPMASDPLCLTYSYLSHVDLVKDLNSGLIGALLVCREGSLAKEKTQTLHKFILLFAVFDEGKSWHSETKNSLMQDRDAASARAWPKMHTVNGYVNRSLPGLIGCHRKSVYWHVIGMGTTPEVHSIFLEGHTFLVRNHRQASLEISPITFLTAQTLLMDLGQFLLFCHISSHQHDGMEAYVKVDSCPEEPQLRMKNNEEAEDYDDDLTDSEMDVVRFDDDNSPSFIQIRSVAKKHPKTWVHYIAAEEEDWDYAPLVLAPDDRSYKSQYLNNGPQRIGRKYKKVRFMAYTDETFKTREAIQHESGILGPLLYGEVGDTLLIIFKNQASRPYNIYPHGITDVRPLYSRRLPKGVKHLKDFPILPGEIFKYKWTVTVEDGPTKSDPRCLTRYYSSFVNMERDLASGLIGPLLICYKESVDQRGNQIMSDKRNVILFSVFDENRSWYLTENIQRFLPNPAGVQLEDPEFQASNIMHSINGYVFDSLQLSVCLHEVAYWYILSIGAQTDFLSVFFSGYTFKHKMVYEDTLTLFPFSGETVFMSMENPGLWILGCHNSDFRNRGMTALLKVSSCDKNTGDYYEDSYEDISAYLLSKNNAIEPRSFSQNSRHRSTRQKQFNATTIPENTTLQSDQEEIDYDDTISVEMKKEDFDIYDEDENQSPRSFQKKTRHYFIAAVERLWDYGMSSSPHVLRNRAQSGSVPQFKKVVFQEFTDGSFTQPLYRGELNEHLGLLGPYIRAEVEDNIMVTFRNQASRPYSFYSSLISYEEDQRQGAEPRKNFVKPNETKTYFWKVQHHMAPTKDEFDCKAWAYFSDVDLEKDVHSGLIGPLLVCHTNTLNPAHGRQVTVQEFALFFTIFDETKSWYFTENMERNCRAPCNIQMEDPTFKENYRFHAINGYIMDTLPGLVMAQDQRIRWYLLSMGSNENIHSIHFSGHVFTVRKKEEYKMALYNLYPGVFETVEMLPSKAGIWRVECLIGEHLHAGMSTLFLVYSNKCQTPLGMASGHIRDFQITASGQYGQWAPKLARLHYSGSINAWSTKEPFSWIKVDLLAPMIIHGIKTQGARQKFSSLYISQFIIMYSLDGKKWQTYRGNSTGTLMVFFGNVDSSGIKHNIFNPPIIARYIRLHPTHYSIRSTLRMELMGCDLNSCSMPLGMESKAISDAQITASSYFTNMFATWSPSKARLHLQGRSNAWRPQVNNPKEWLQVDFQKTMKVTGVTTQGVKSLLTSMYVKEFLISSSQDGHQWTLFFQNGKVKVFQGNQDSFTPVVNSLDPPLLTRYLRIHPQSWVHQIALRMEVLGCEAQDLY
The experiment in a line: SPR, anti-His capture. The method, then: Binding kinetics were investigated by surface plasmon resonance using a Biacore 4000 biosensor at 37° C. Each mutant was captured from cell culture medium to a density of 40-150 RU on a CM-5 sensor chip pre-immobilised with anti-His antibody (14,000 RU). In an initial screening study, FVIII was injected over the captured mutants for 5 minutes at 1 nM and dissociation monitored for 5 minutes.
All sensorgrams were double referenced by subtraction of signals from a reference spot (containing only immobilised anti His antibody) and from a blank injection. Binding kinetics were determined by fitting the double referenced sensorgrams to a 1:1 kinetic model.
A general note: Surface plasmon resonance follows binding to a sensor surface in real time, without labels.

The target in assay [3] is T1, recombinant Factor VIII (CSL627, …). Put plainly: SPR, anti-His capture. An outline of the steps: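 Capture 40-150 RU mutant from medium on anti-His (14,000 RU) CM-5; 1 nM FVIII, 5 min on / 5 min off; reference spot + blank subtracted; 1:1 fit.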
This is another data set of the same source.

Assay [4] has as its target T2, recombinant Factor VIII (CSL627, rVIII-SingleChain) (Homo sapiens (Human), UniProt P00451 20-2351).
T2 construct: also called FVIII
T2 sequence: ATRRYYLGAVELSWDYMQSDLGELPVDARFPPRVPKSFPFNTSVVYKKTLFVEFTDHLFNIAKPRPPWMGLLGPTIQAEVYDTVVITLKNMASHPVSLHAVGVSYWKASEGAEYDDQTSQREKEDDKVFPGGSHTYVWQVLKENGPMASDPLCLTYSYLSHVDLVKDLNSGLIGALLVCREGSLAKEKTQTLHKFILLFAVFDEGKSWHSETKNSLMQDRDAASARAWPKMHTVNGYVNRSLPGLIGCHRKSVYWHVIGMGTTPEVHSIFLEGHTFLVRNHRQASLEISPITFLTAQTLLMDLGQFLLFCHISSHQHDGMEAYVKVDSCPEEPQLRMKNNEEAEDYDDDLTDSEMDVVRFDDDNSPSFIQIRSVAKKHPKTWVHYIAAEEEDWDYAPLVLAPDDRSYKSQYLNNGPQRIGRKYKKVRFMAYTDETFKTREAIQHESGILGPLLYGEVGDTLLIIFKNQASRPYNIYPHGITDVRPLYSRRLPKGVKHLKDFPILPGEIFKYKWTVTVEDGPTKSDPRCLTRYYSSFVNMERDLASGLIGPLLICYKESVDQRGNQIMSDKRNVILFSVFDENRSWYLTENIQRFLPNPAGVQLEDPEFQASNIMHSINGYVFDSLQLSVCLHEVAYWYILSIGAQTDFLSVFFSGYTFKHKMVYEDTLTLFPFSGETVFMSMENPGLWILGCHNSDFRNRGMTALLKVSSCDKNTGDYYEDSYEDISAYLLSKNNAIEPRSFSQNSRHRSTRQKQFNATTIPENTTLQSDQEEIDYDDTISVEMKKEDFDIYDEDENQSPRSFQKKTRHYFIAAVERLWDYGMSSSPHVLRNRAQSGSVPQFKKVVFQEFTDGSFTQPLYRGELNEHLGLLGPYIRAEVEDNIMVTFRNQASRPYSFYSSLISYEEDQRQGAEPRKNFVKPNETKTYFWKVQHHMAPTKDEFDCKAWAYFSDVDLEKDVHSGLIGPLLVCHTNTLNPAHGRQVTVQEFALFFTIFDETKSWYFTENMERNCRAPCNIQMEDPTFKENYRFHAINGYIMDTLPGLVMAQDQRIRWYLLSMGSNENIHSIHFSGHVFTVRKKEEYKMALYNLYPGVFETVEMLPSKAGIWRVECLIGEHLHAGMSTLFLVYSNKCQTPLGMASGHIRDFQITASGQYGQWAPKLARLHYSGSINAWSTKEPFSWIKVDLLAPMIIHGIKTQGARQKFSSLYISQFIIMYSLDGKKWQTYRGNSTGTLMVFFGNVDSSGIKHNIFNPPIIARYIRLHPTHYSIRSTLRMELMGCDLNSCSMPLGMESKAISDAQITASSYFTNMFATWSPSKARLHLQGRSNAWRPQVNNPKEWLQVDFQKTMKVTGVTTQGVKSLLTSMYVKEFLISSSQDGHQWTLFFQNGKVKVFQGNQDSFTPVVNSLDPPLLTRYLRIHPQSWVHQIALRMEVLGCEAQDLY
Put plainly: SPR, anti-His capture, FVIII injected, pH 5.5.

Take “Hu-vWF[764-1270]-8His dupS764/S764P/S766I (from UniProt P04275 767-1270)”: in assay [1], the dissociation constant Kd (in general, the free concentration of one partner at which half of the binding sites on the other are occupied at equilibrium, for simple one-to-one binding) was 0.255 nM and 0.199 nM; the koff – broadly, a measure of how fast the partners let go of each other – is 0.00159 s⁻¹ and 0.0025 s⁻¹; the kon (commonly the rate constant with which the complex forms) was 6.23e+06 M⁻¹ s⁻¹ and 1.25e+07 M⁻¹ s⁻¹.

B1: Hu-vWF[764-1270]-8His S764P-S766Y (other)
chain: PLYCRPPMVKLVCPADNLRAEGLECTKTCQNYDLECMSMGCVSGCLCPPGMVRHENRCVALERCPCFHQGKEYAPGETVKIGCNTCVCRDRKWNCTDHVCDATCSTIGMAHYLTFDGLKYLFPGECQYVLVQDYCGSNPGTFRILVGNKGCSHPSVKCKKRVTILVEGGEIELFDGEVNVKRPMKDETHFEVVESGRYIILLLGKALSVVWDRHLSISVVLKQTYQEKVCGLCGNFDGIQNNDLTSSNLQVEEDPVDFGNSWKVSSQCADTRKVPLDSSPATCHNNIMKQTMVDSSCRILTSDVFQDCNKLVDPEPYLDVCIYDTCSCESIGDCACFCDTIAAYAHVCAQHGKVVTWRTATLCPQSCEERNLRENGYECEWRYNSCAPACQVTCQHPEPLACPVQCVEGCHAHCPPGKILDELLQTCVDPEDCPVCEVAGRRFASGKKVTLNPSDPEHCQICHCDVVNLTCEACQEPGGLVVPPTDAPVSPTTLYVEDISEPPLHDFHHHHHHHH
In the case of B1, in assay [2], the Kd was found to be 7.16 pM, the koff was determined as 7.71e-05 s⁻¹ and the kon amounted to 1.08e+07 M⁻¹ s⁻¹. In assay [3], the dissociation constant (Kd) came out at 7.16 pM, the dissociation rate constant (koff) was 7.71e-05 s⁻¹ and the kon worked out at 1.08e+07 M⁻¹ s⁻¹.

B2: Hu-vWF[764-1270]-8His S764P-S766L (other)
chain: PLLCRPPMVKLVCPADNLRAEGLECTKTCQNYDLECMSMGCVSGCLCPPGMVRHENRCVALERCPCFHQGKEYAPGETVKIGCNTCVCRDRKWNCTDHVCDATCSTIGMAHYLTFDGLKYLFPGECQYVLVQDYCGSNPGTFRILVGNKGCSHPSVKCKKRVTILVEGGEIELFDGEVNVKRPMKDETHFEVVESGRYIILLLGKALSVVWDRHLSISVVLKQTYQEKVCGLCGNFDGIQNNDLTSSNLQVEEDPVDFGNSWKVSSQCADTRKVPLDSSPATCHNNIMKQTMVDSSCRILTSDVFQDCNKLVDPEPYLDVCIYDTCSCESIGDCACFCDTIAAYAHVCAQHGKVVTWRTATLCPQSCEERNLRENGYECEWRYNSCAPACQVTCQHPEPLACPVQCVEGCHAHCPPGKILDELLQTCVDPEDCPVCEVAGRRFASGKKVTLNPSDPEHCQICHCDVVNLTCEACQEPGGLVVPPTDAPVSPTTLYVEDISEPPLHDFHHHHHHHH
With B2, in assay [4], the Kd was determined as 0.234 nM, the off-rate constant (koff) was 0.000104 s⁻¹ and the kon turned out to be 445000 M⁻¹ s⁻¹.
